Read-outs that look alike come from different tables or passages of the source.
T1: GST-p52 (WT) (Homo sapiens, UniProt Q00653 1-454)
T1 sequence: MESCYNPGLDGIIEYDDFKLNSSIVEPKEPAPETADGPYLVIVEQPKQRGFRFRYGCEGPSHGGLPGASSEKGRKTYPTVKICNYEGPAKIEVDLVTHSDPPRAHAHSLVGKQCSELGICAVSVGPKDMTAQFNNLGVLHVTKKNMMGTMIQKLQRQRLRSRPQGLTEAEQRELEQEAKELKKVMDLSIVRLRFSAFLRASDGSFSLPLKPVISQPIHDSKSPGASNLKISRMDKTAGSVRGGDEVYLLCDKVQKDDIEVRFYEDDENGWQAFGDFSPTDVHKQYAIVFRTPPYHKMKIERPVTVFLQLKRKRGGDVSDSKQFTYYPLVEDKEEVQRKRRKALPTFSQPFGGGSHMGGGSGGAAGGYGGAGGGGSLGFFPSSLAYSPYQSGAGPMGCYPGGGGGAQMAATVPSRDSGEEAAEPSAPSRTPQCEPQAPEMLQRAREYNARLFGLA

T2: GST-ETS1 (Homo sapiens, UniProt P14921 1-441)
T2 sequence: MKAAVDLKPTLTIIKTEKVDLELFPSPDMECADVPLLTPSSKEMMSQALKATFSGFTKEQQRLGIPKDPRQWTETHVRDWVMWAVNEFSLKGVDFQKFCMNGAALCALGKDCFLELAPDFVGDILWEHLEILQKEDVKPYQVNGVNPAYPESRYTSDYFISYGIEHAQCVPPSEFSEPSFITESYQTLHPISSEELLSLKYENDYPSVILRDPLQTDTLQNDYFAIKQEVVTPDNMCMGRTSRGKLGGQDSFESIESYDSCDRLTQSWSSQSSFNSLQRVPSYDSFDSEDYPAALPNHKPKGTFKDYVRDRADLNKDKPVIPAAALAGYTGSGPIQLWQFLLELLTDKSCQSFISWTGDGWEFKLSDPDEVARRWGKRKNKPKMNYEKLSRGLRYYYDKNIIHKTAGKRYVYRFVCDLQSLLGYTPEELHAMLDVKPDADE

T3: GST-p52 (WT);GST-ETS1 (Homo sapiens;Homo sapiens, UniProt Q00653;P14921 1-454;1-441, |)
T3 sequence 1: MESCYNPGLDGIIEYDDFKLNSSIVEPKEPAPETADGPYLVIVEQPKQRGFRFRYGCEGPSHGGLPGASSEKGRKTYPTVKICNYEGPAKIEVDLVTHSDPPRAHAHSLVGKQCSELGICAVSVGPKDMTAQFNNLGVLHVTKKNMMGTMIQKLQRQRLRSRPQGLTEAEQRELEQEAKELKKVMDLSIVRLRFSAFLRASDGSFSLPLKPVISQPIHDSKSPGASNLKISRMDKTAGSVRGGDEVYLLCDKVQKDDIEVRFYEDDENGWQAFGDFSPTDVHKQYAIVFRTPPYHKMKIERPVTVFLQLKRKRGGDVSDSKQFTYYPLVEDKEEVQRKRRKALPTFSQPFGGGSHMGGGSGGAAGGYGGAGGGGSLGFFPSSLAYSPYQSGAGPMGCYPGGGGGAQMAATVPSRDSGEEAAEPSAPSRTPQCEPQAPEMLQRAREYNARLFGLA
T3 sequence 2: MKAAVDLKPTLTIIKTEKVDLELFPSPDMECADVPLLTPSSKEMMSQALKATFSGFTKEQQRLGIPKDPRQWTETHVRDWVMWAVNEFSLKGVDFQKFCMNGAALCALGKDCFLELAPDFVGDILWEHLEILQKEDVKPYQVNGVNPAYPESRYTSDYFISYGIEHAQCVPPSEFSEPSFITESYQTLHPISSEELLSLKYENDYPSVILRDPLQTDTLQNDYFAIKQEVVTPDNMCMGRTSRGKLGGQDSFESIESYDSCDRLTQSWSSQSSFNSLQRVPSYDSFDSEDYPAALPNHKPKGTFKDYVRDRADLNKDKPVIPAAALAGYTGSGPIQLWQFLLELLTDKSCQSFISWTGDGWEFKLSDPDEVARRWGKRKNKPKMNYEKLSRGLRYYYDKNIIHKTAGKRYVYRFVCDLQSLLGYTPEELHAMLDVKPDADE

B1: WT TERT promoter probe (dsDNA)
DNA 1: GTCCCGACCCCTCCCGGGTCCCCGGC
DNA 2: GCCGGGGACCCGGGAGGGGTCGGGAC
B2: C250T TERT promoter probe (dsDNA)
DNA 1: GTCCCGACCCCTTCCGGGTCCCCGGC
DNA 2: GCCGGGGACCCGGAAGGGGTCGGGAC

Key:
Assay in all cases: EMSA
[1] = biological target: T1, GST-p52 (WT)
[2] = biological target: T2, GST-ETS1
[3] = biological target: T2, GST-ETS1; remark: listed apart in the source
[4] = biological target: T3, GST-p52 (WT);GST-ETS1
[5] = biological target: T1, GST-p52 (WT); remark: listed apart in the source

| Binder | binding result [1] | binding result [2] | binding result [3] | binding result [4] | binding result [5] |
| --- | --- | --- | --- | --- | --- |
| B1 | binds | no binding |  |  |  |
| B2 |  |  | binds | binds | binds |

— article PMC4772727
